T1: Kid (Escherichia coli plasmid R1, UniProt P13976 24-133)
T1 construct: expressed from p424Met25Kid in yeast and from pNATHA2 in HeLa cells; also called ParD kid toxin; killing determinant
T1 sequence (looked up): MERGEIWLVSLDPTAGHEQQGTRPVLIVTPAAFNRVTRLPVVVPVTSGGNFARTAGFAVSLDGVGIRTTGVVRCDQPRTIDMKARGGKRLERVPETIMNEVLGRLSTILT


What was measured:
[1] = molecular target: Kid (Escherichia coli plasmid R1) (UniProt P13976); assay: cell-based or functional assay
[2] = molecular target: T1, Kid; assay: co-retention of untagged Kid with HisKis on Ni2+-activated chelating sepharose; Kid released only by denaturation (eluted at 5.5 M guanidinium chloride)

Row | Molecule | dead cells (trypan blue), all other samples (incl. kis+/kid+ HeLa cells without Doxycyclin, Kis expressed) [1] [%] | dead cells (trypan blue), kis+/kid+ HeLa cells in presence of Doxycyclin, day five [1] [%] | dead cells (trypan blue), kis+/kid+ HeLa cells in presence of Doxycyclin, day ten [1] [%] | binding result [2]
1 | Kis (from UniProt P13975 1-85) | < 9 | 32 | 65 | –
2 | HisKis (other, Escherichia coli plasmid R1, UniProt P13975 1-85, looked up, Co-expressed with Kid from pRG-HisKisKid in E. coli C600 or TG1; also called His-tagged Kis; ParD kis antitoxin with N-terminal His tag; not shown: N-terminal His tag and linker from vector pET15b, subcloned into pRG-recA-NHis) MHTTRLKRVGGSVMLTVPPALLNALSLGTDNEVGMVIDNGRLIVEPYRRPQYSLAELLAQCDPNAEISAEEREWLDAPATGQEEI | – | – | – | binds

Reference: patent EP1198239B1 (Cancer Research Ventures Limited, dated 2007)
